Laboratory results reported in the supplement of paper PMC9732359.
± gives the uncertainty stated by the source.

Experiment: protein stability index of a GFP-peptide fusion (yeast GPS) (PSI 1-4); higher = more stable; sorted into four equal gates, so the index is relative within each strain
Procedure, shortened: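 Yeast carrying a pooled library were grown to mid-log phase in leucine-free medium. Each library plasmid expresses Cherry and has a tiled 17-residue yeast protein peptide fused downstream of GFP. Cells were sorted into four equal gates by GFP/Cherry ratio, and plasmids from each gate were PCR-amplified, Illumina-sequenced and assigned to strains by barcode. Summing, across gates, the read frequency times the gate number gave each peptide's protein stability index.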

Row | Sequence | protein stability index (doa10∆) | protein stability index (pdr5∆) | protein stability index (san1∆) | protein stability index (ubr1∆)
1 | KSDEAKWKPVLSHIVYF [RPN5] | 2.29 ± 0.067 | 2.21 ± 0.062 | 2.23 ± 0.058 | 2.03 ± 0.047
2 | KSEEVKAEDDTGEEEED [RPC37] |  |  |  | 2.95 ± 0.19
3 | KSGKRKPNIILDEDDTN [RPC31] | 3.29 ± 0.1 | 3.12 ± 0.092 | 3.35 ± 0.067 | 3.21 ± 0.046
4 | KSKERSSQFVRLASEPG [YMR129W/POM152] | 2.65 ± 0.14 | 2.62 ± 0.13 | 3.16 ± 0.1 | 2.8 ± 0.074
5 | KSKREEEAKSVLPAATK [ARP9] | 1.1 ± 0.092 | 1.37 ± 0.067 | 1.29 ± 0.11 | 1.21 ± 0.054
6 | KSLALLGYNFDGSAIED [SNF5] | 3.01 ± 0.084 | 2.99 ± 0.083 | 2.28 ± 0.072 | 2.86 ± 0.07
7 | KSLPLLITVMEKSPDPT [YCS4] | 1.91 ± 0.045 | 1.87 ± 0.043 | 1.92 ± 0.062 | 1.97 ± 0.034
8 | KSNVIDSMLFVFGFRAN [SMC4] | 2.26 ± 0.049 | 2.39 ± 0.054 | 2.16 ± 0.078 | 2.68 ± 0.059
9 | KSSELELQKLVHDLNKY [SMC2] | 3.22 ± 0.088 | 3.41 ± 0.079 | 3.36 ± 0.045 | 3.4 ± 0.05
10 | KSSIEKDPSPEILVLYN [SIN4] | 2.91 ± 0.05 | 2.9 ± 0.055 | 2.91 ± 0.045 | 2.82 ± 0.043
11 | KSVLGDGKKHSVFYTIL [RPO31] | 2.19 ± 0.087 | 2.42 ± 0.085 | 3.02 ± 0.08 | 2.1 ± 0.087
12 | KTAMAELALLNHWRQNK [BRR2] | 1.39 ± 0.082 | 1.79 ± 0.12 | 1.26 ± 0.17 | 1.88 ± 0.062
13 | KTARGKAALERLKVFEG [RPL16A] | 2.28 ± 0.15 | 2.37 ± 0.089 | 2.95 ± 0.1 | 2.1 ± 0.12
14 | KTDQEEEREGTDQSTEE [CSL4] | 3.12 ± 0.16 |  |  | 
15 | KTFKNPKYESLKLEYYN [RPN5] | 2.11 ± 0.083 | 1.49 ± 0.089 | 1.09 ± 0.23 | 1.25 ± 0.058
16 | KTFSRLDALTRHIKSKH [RPN4] | 1.11 ± 0.12 | 1.25 ± 0.087 | 1.06 ± 0.12 | 1.5 ± 0.1
17 | KTKAMVPPINCIFNFLQ [SME1] | 1.65 ± 0.042 | 1.65 ± 0.037 | 1.97 ± 0.07 | 2.12 ± 0.036
18 | KTKFQYKFLDQNSDAST [YIL149C/MLP2] | 3.08 ± 0.1 | 3.01 ± 0.096 | 2.94 ± 0.078 | 3.06 ± 0.08
19 | KTKTSLLPTIKRTICKK [RPR2] | 3.27 ± 0.11 | 3.18 ± 0.13 | 2.49 ± 0.18 | 3.29 ± 0.13
20 | KTKYILQRPTATDEESV [CSN12] | 3.18 ± 0.084 | 3.12 ± 0.081 | 2.95 ± 0.17 | 3.14 ± 0.2
21 | KTLKRMIKESSTANPNI [POP1] | 2.54 ± 0.1 | 2.76 ± 0.091 | 2.28 ± 0.092 | 2.67 ± 0.054
22 | KTLVYLEKCEAEFKKRK [YCS4] | 3.42 ± 0.28 | 3.69 ± 0.17 |  | 
23 | KTQLGSTMTEPVKQSFI [GAL11] | 2.81 ± 0.051 | 2.9 ± 0.06 | 2.56 ± 0.053 | 2.85 ± 0.037
24 | KTRKTYCKGKTCRKHTQ [RPL42A] | 2.45 ± 0.068 | 1.69 ± 0.068 | 2.75 ± 0.072 | 2.06 ± 0.043
25 | KTRVGSVTAQVYKIALR [RPC82] | 1.27 ± 0.11 | 1.49 ± 0.068 | 1.5 ± 0.16 | 1.15 ± 0.12
26 | KTSKRTKRWYKNAGLGF [RPS11A] | 3.3 ± 0.091 | 2.84 ± 0.12 | 3.17 ± 0.11 | 3.4 ± 0.085
27 | KTSLSIKVENLNDTTEK [SMC2] | 2.87 ± 0.058 | 2.97 ± 0.081 | 3.09 ± 0.063 | 2.89 ± 0.05
28 | KTVKELRQLLKERYTVE [RRI1] | 2.74 ± 0.054 | 2.1 ± 0.062 | 2.1 ± 0.066 | 3.06 ± 0.068

Row | Sequence | protein stability index (doa10∆) | protein stability index (pdr5∆) | protein stability index (san1∆) | protein stability index (ubr1∆)
29 | KTVPFQVNQLQRILEVL [SSN3] | 2.27 ± 0.033 | 2.11 ± 0.031 | 1.63 ± 0.041 | 2.08 ± 0.03
30 | KVAPAPFGAKSTKSNKT [RPL8A] | 2.68 ± 0.1 | 2.84 ± 0.076 | 2.74 ± 0.071 | 2.94 ± 0.068
31 | KVDGKVRTDTTYPAGFM [RPS4A] | 3.41 ± 0.13 | 3.18 ± 0.13 | 2.97 ± 0.073 | 3.15 ± 0.11
32 | KVEIPLPNEAGRLEIFK [RPT4] |  | 3.09 ± 0.17 | 2.52 ± 0.18 | 2.74 ± 0.21
33 | KVEKGVNIEPFNIDDEI [LIN1] | 3.52 ± 0.14 | 3 ± 0.21 | 3.45 ± 0.14 | 3.49 ± 0.076
34 | KVIKVLGRTGSRGGVTQ [RPS28A] | 3.02 ± 0.073 | 3.04 ± 0.058 | 2.73 ± 0.085 | 3.12 ± 0.083
35 | KVPDISSDGQLKKFRES [BRR2] | 3.36 ± 0.13 | 3.49 ± 0.14 | 3.39 ± 0.07 | 3.54 ± 0.065
36 | KVSKNSTSFKNPRRLEI [YMR153W/NUP53] | 2.85 ± 0.059 | 2.87 ± 0.057 | 2.88 ± 0.057 | 2.71 ± 0.032
37 | KVSYAVKKPQKSKTSTG [SNM1] | 2.85 ± 0.1 | 3.15 ± 0.13 | 2.66 ± 0.12 | 3.24 ± 0.079
38 | KYLYLRAVGGEVGASAA [RPL12A] | 1.66 ± 0.18 | 1.99 ± 0.13 | 1.64 ± 0.13 | 2.11 ± 0.1
39 | KYRKRQLVTREAQIKDW [FAS2] | 2.81 ± 0.27 | 2.86 ± 0.15 | 2.93 ± 0.24 | 3.22 ± 0.11
40 | KYSDILLKKATKPEVAS [CDC53] | 2.32 ± 0.097 | 2.23 ± 0.12 | 2.47 ± 0.15 | 2.47 ± 0.17
41 | LADILKANISLETLEHN [RPO21] | 2.96 ± 0.093 | 2.91 ± 0.1 | 3.11 ± 0.11 | 2.61 ± 0.11
42 | LADKLENYEGKQDKTLQ [YIL149C/MLP2] | 3.15 ± 0.18 | 3.22 ± 0.22 | 2.92 ± 0.15 | 3.17 ± 0.22
43 | LAKSKASLTAARTAANS [RPN6] | 2.5 ± 0.18 | 2.69 ± 0.12 | 2.83 ± 0.097 | 2.7 ± 0.051
44 | LAKTKENYDAKIELEKK [YIL149C/MLP2] | 3.22 ± 0.058 | 3.47 ± 0.075 | 3.05 ± 0.061 | 3.13 ± 0.053
45 | LANFVAKGFYHTPMVNF [SRB8] | 2.57 ± 0.059 | 2.27 ± 0.044 | 1.92 ± 0.082 | 2.32 ± 0.048
46 | LAPTQLSAEYLVILKPD [SIN4] | 2.31 ± 0.11 | 2.74 ± 0.13 | 2.38 ± 0.12 | 2.38 ± 0.074
47 | LAQLTSKLIPEVINKEI [RPS1A] | 2.82 ± 0.1 | 3.28 ± 0.1 | 2.92 ± 0.073 | 2.71 ± 0.07
48 | LARGLRESTKALTRGEA [RPS12] | 3.28 ± 0.14 | 3.65 ± 0.12 | 2.94 ± 0.24 | 3.37 ± 0.044
49 | LARQVKLLLLNTSAIQE [YIL149C/MLP2] | 2.19 ± 0.085 | 1.75 ± 0.073 | 1.56 ± 0.12 | 1.65 ± 0.038
50 | LASFEKTTDHLFDAAFY [RPO31] | 2.9 ± 0.058 | 2.79 ± 0.046 | 2.96 ± 0.05 | 3 ± 0.043
51 | LATGPNLTSEIEDLRAD [YOR098C/NUP1] | 3.42 ± 0.11 | 3.25 ± 0.11 | 3.12 ± 0.06 | 3.25 ± 0.082
52 | LATPVQFELLSRRWRQR [BRR2] | 1.79 ± 0.072 | 1.87 ± 0.054 | 1.81 ± 0.072 | 2.17 ± 0.051
53 | LATRRVLQEYRLTKQAF [RPO21] | 2.99 ± 0.082 | 3.1 ± 0.1 | 3.01 ± 0.065 | 3.17 ± 0.056
54 | LCKSATTKMWPTNCPLR [BRR2] | 2.82 ± 0.13 | 2.68 ± 0.12 | 2.58 ± 0.081 | 2.75 ± 0.094
55 | LCQINKCSTRGLSTDHT [YML103C/NUP188] |  | 2.47 ± 0.23 |  | 3.13 ± 0.18
